Here are results for 41 sequences from the nanobody polyreactivity screen of Harvey et al. (2022).

This data set can be described thus: yeast display, Sf9 membrane polyspecificity reagent, FACS + sequencing; frameworks hold sequencing errors. An outline of the steps: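 Polyreactivity labels are assigned by the sorting gate from which each nanobody was recovered. The gates were low and high (top ~1%), set on anti-HA fluorescence for expression and streptavidin fluorescence for reagent binding. Before sorting, galactose-induced (36–48 hours) yeast display cells were stained for 1 hour at 4 °C with 10% biotinylated, detergent-solubilized Sf9 membrane reagent.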
As for “QVQLVESGGGLVQAGGSLRLSCAASRSTLSTYAMGWYRQAPGTERELVAAITWSDDSTYYADSVKGRFTISRDNAKNTVYLQMNSLKPEDTAVYYCAAEYISWFFGYDYWGQGTQVTVSS”, the “polyreactivity (PSR sort gate)” value was “high polyreactivity”.

Consider “QVQLVESGGGLVQAGGSLRLSCAASRYIFSRNAMGWYRQAPGKERELVAAISLRGGSTYFADSVKGRFTISRDNAKNTVYLQMNSLKPEDTAVYYCAAPLFSGYDYWGQGTQVTVSS”, for which the “polyreactivity (PSR sort gate)” value is on record as “low polyreactivity”.

For “QVQLVESGGGLVQAGGSLRLSCAASVFISSWYDMGWYRQAPGKERQLVAAIRSSGGNTYYADSVKGRFTISRDNAKNTVYLQMNSLKPEDTAVYYCAKDWKSEDGGYYWGQGTQVTVSS”, the “polyreactivity (PSR sort gate)” value is “high polyreactivity”.

As to “QVQLVESGGGLVQAGGSLRLSCAASVFTFSPNAMGWYRQAPGKERELVAAISKRGASTYYADSVKGRFTISRDNAKNTVYLQMNSLKPEDTAVYYCNVGASARKPYDYWGQGTQVTVSS”, the “polyreactivity (PSR sort gate)” value is on record as “high polyreactivity”.

As to “QVQLVESGGGLVQAGGSLRLSCAASVGTFRRYAKGWYREAPGKERELVAAISWTGGSTYYADSVKGRFTISRDNAKNNVYLQMNSLKPEDTAVYYCAAVGSSSSKGGYWGQGTQVTVSS”, the “polyreactivity (PSR sort gate)” value is reported as “high polyreactivity”.

“QVQLVESGGGLVQAGGSLRLSCAASVITFDVYAMGWYRPAPGKERELVAAISSVGGTYYADSVKGRFTISRDNAKNTVYLQMISLKPEDTAVYYCNTDGYVGSIRSGLYIYDYWGQGTQVTVSS”: the “polyreactivity (PSR sort gate)” value is “low polyreactivity”.

“QVQLVESGGGLVQAGGSLRLSCAASVITFNYNARGWYRQAPGKERELVARITWSGTRTYYADSVKGRFTMSRDNANNTVYLQMNSLKPEDTGVYYCNAGPYARYYWGQGTQVTVSS”: the “polyreactivity (PSR sort gate)” value is given as “high polyreactivity”.

For the sequence “QVQLVESGGGLVQAGGSLRLSCAASVLIFEAYAMGWYRQAPAKERELVATINKSGGSTYYADSVKGRFTISRDNAKNTVYLQMNSLKPEDTAVYFCAAFFLLPSPWPSYWCWNGDYWGQRTQVTVSS”, the “polyreactivity (PSR sort gate)” value is recorded as “low polyreactivity”.

Turning to “QVQLVESGGGLVQAGGSLRLSCAASVLIFYDNIGWYRQAPGKERELVAAIDSGGNTYADSVKGRFTISRDNAKNTVYLQMNSLKPEDTAVYYCAVDGGEFSSYGYWGQGTQVTVSS”, the “polyreactivity (PSR sort gate)” value was “low polyreactivity”.

Regarding “QVQLVESGGGLVQAGGSLRLSCAASVNTFWYYTMGWYRQAPGKERELVAAITGGGRTYYADSVKGRFTISRDNAKNSVYLQMNSLKPEDTAVYYCAKPWGSDFGSWGQGTQVTVSS”, the “polyreactivity (PSR sort gate)” value is reported as “low polyreactivity”.

For the sequence “QVQLVESGGGLVQAGGSLRLSCAASVRIFEVYAMGWYRQAPGKERELVAAISSGGGSTYYADSVKGRFTISRDNAKNTVFLQMISLKPEDTAVYYCAADEVTKKNSFPRIMDYWGQGTQVTVSS”, the “polyreactivity (PSR sort gate)” value is “high polyreactivity”.

In the case of “QVQLVESGGGLVQAGGSLRLSCAASVRIFRINTMGWYRQAPGKERELVAAIRTSGSSTYADSVKGRFTISRDNAKNTVYLQMNSLKPEDTAVYYCNTKYPGRGYYWGQGTQVTVSS”, the “polyreactivity (PSR sort gate)” value is listed as “high polyreactivity”.

As to “QVQLVESGGGLVQAGGSLRLSCAASVRTFYYYAMGWYRQAPGKERELVARISRGGSTNYADSVKGRFTISRDNAKNTVYLLMNSLKTEDTAVYYCAKSISYTGRYWGYDYWGQGTQVTVSS”, the “polyreactivity (PSR sort gate)” value is “high polyreactivity”.

With “QVQLVESGGGLVQAGGSLRLSCAASVSIFKGYAMGWYRQAPGKERELVAAITGSDGSTYADSVKGRFTISRDNAKNTVYLQMNSLKPEDTAVYYCNTGGWTRYRPPGYEWNWYDYWGQGTQVTVSS”, the “polyreactivity (PSR sort gate)” value was “low polyreactivity”.

Consider “QVQLVESGGGLVQAGGSLRLSCAASVSIIPHNTMGWYRQAPGKEMELVAAISRSGGSTYYADSVKGRFTISRDNGKKTVYLQMNSLKPEDTAVYYCSSDSYDVGHQVVSEERLYDYWGQGTQVTVSS”, for which the “polyreactivity (PSR sort gate)” value is “low polyreactivity”.

For the sequence “QVQLVESGGGLVQAGGSLRLSCAASVSTFEANAMGWYRQAPGKERELVAVITWTGGSTYYADSVKGRFTISRDYAKNNVYLQMNSLKPEDTAVYYCAAKFHRFAWYSHYDYWGQGTQVTVSS”, the “polyreactivity (PSR sort gate)” value is recorded as “low polyreactivity”.

Regarding “QVQLVESGGGLVQAGGSLRLSCAASVSTFTFNDMGWSRQAPGKERELVAAITSGGSTTYADSVKGRFTISRDNAKNTVYLQMNSLKPEDTAVYYCAADYVYFYFYGYASWGQGTQVTVSS”, the “polyreactivity (PSR sort gate)” value is given as “low polyreactivity”.

Turning to “QVQLVESGGGLVQAGGSLRLSCAASVSTIGTYAMGWYRQAPGKERELVAAISTGGSTYYADSVKGRFTISRANAKNTVHLQMNSLKPEDTAVYYCAALADYVRRASDYWGQGTQVTVSS”, the “polyreactivity (PSR sort gate)” value is “low polyreactivity”.

In the case of “QVQLVESGGGLVQAGGSLRLSCAASVYIFVRNALGWYRQAPGKERELVAAISGSGGSTYYADSVKGRFTISRDNAKNTVSLQMNSLIPEDTAVDYCAADYATVTWRGIAYDYWGQGTQVTVSS”, the “polyreactivity (PSR sort gate)” value is given as “low polyreactivity”.

Turning to “QVQLVESGGGLVQAGGSLRLSCAASVYTFPSYVMGWYRQAPGKERELVAAISSGSRTYYADSVKGRFTISRDNAKNTVYLQMNSLKPEDTAVYYCNARGFPGKFGYWGPGTQVTVSS”, the “polyreactivity (PSR sort gate)” value is “high polyreactivity”.

For the sequence “QVQLVESGGGLVQAGGSLRLSCAASVYTFYKYAMGWYRQAPGKERELVAAISSSGGSTYYADSVKGRFTISRDNAKNTVYLQMNSLKPEDTAVYYCAAYVYSNDYDYWGQGTQVTVSS”, the “polyreactivity (PSR sort gate)” value was “high polyreactivity”.

With “QVQLVESGGGLVQAGGSLRLSCAATGFFFGPYVMGWYRQATGKERELVAVITWTGGSTSYADSVKGRFTISRDNAKNTVYLQMNSLKREDTAVYYCAARTHQYRSRSYYYWGQGTQVTVSS”, the “polyreactivity (PSR sort gate)” value is given as “high polyreactivity”.

In the case of “QVQLVESGGGLVQAGGSLRLSCAATGFIFTDNVMGWYRQAPGKERELVAAISRRGGSTYYADSVKGRFTISRDNAKNTVYLQMNSLKPEDTAVYYCNVARQSYLLDYWGQGSQVTVSS”, the “polyreactivity (PSR sort gate)” value was “high polyreactivity”.

As for “QVQLVESGGGLVQAGGSLRLSCAATGFTFCANAMGWYRQAPGKERELVAAISWTGVNTYYADSVKGRFTISRDNAKNTVYLQMNSLKPEDTAVYSCAAEQWSTGYYYWGQGTQVTVSS”, the “polyreactivity (PSR sort gate)” value is listed as “high polyreactivity”.

For “QVQLVESGGGLVQAGGSLRLSCAATGFTFIHYGMGWYRQAPGKERELVAAITWRGDRTYADSVKGRFTISRDNANNTVYLQMNSLKPEDTAVYYCAAVSANQDFDYWGQGTQVTVSS”, the “polyreactivity (PSR sort gate)” value was “high polyreactivity”.

As to “QVQLVESGGGLVQAGGSLRLSCAATGFTFTGNAMGWYRQAPGKQRELVAAINTGTGGSTYYADSVKGRFTISRDNAKNTVYLQMNSLKPVDTAVYYPIGVGGDYDYWGQGTQVTVSS”, the “polyreactivity (PSR sort gate)” value is on record as “low polyreactivity”.

Regarding “QVQLVESGGGLVQAGGSLRLSCAATGFTFTLYAMGWYRQAPGKERALVAAITRLGTSTYYADSVKGRFTISRDNAKNTVYLQMNNLKPEDTAVYYCAARGGGGQRYDYWGHGTQVTVSS”, the “polyreactivity (PSR sort gate)” value is “high polyreactivity”.

As to “QVQLVESGGGLVQAGGSLRLSCAATGFTFYGYAMGWYRQAPGKERELVAAISRRSSSTYYADSVKGRFTISRDNAKNTVYLQMNSLKPEDTAVCYCNTVFQRSGYAAGVDYWGQGTQVTVSS”, the “polyreactivity (PSR sort gate)” value is recorded as “high polyreactivity”.

On to “QVQLVESGGGLVQAGGSLRLSCAATGFTSYLYTMGGYRQAAGKERELVAAISNSGGNTYYADSVKGRFTISRDNANNTVYLQMNSLKPEDTAVYYCAARLFAAKYRYGYWGQGTQVTVSS”, for which the “polyreactivity (PSR sort gate)” value was “high polyreactivity”.

Take “QVQLVESGGGLVQAGGSLRLSCAATGIISQYYAMGWYRQQPGKESELDAAISRSGGSTFYADSVKGRFTISRDNAQNTVYLQMNSLKPEDTAVYYCNAESRFRPYTSRYDYWGQGTQVTVSS”: the “polyreactivity (PSR sort gate)” value is listed as “high polyreactivity”.

For “QVQLVESGGGLVQAGGSLRLSCAATGIKFDGYAMGWYRQEPRKERELVAGITIGDITYYADSVKGRFTISRDNAKNTVYLQMNSLKPEDTAVYYCADDCYYYQTAYDYWGQGTQVTVSS”, the “polyreactivity (PSR sort gate)” value is reported as “low polyreactivity”.

Turning to “QVQLVESGGGLVQAGGSLRLSCAATGINITSNTMGWYRLAPGKEREFVASINWNGSSTYADSVKGRFTISRDNAKNTVYLQMNSLKPEDTAVYYCNADYNRNSVQFSLYDYWGQGTQVTVSS”, the “polyreactivity (PSR sort gate)” value was “low polyreactivity”.

Take “QVQLVESGGGLVQAGGSLRLSCAATGITFVYNAMGWYRQAPGKERELVAAISWSGTSTYYADSVKGRFTISRDNAKNTVYLQMNSLKPEDTAVYDCSAQSGYPPYGYYYWGQGTQVTVSS”: the “polyreactivity (PSR sort gate)” value was “low polyreactivity”.

For the sequence “QVQLVESGGGLVQAGGSLRLSCAATGITFYPNGMGWYRPAPGKEREFVAAITSSGGSTYYADSVKGRFTISRDNAKNSVYLQMNSLKPEDTAVYYCAAQYYPISYYGYGYWGQGTQVTVSS”, the “polyreactivity (PSR sort gate)” value is “low polyreactivity”.

Regarding “QVQLVESGGGLVQAGGSLRLSCAATGLTFSTNTMGWYRQAPGKEREFVAAITARGGRTYYADSVKGRFTISRDNAKNTVYLQMNCLKPEDTAVYYCAANAYTYYARIGFDYWGQGTQVTVSS”, the “polyreactivity (PSR sort gate)” value is “high polyreactivity”.

For the sequence “QVQLVESGGGLVQAGGSLRLSCAATGRIFIAYAMGWYRQAPGKEREFVAAISSGGGSTYYADSVKGRFTISRDNAKNTVYLQMNSLKPEDTAVYYCGAWTLYWSHTTWSYDYWGQGTQGTVSS”, the “polyreactivity (PSR sort gate)” value was “low polyreactivity”.

As for “QVQLVESGGGLVQAGGSLRLSCAATGRIFKTYAMGWYRQAPGKERELVAAISWTVVSTHYADSVKGRFTISRDNAKNTVYLQMNSLKPEDTAVYYCNADTPLRHRTWNRKVTDFEYDYWGQGTQVTVSS”, the “polyreactivity (PSR sort gate)” value is “low polyreactivity”.

On to “QVQLVESGGGLVQAGGSLRLSCAATGRIFRVYAMGWYRQAPGKVRELVAAISSGGSTNYADSVKGGFTISRDNAKNTVYLQMKSLKPEDTAVYYCAADYWYRLFWYYGAPLDYWGQGTQVTVSS”, for which the “polyreactivity (PSR sort gate)” value is given as “low polyreactivity”.

For the sequence “QVQLVESGGGLVQAGGSLRLSCAATGRIFTYYAMGWYRQAPGKERELVAGISGSGTSTYYADSVKARFTISRDNAKNTVDLQINSLKPEDTAVYYSAADVFRDDVWLDYWGQGTQVTVSS”, the “polyreactivity (PSR sort gate)” value is listed as “low polyreactivity”.

Take “QVQLVESGGGLVQAGGSLRLSCAATGRIFYSNAMGWYRQAPGKERELVAVIRRTGSTYYADSVKGRFTISRDNAKHTVYLQMNSLKPEDTAVYYCATRIPYGRGGNRYDYWGQGTQVTVSS”: the “polyreactivity (PSR sort gate)” value is recorded as “low polyreactivity”.

“QVQLVESGGGLVQAGGSLRLSCAATGRPSTSMLWDGIDRRLGKKGSSLTYYADSVKGRFTISRDNAKNTVYLQMNCLKPEDTAVYYCNKRRRWDNYGYRYGYWGQGTQVTVSS”: the “polyreactivity (PSR sort gate)” value was “low polyreactivity”.
